US20030031667A1 (CELLDEX RESEARCH, published 2003)

T1: human macrophage mannose receptor (human, UniProt P22897 19-1456)
T1 construct: whole, on cells; In the immunoprecipitations it came from cell lysates; also called human B11 antigen; B11 target antigen
T1 sequence (looked up): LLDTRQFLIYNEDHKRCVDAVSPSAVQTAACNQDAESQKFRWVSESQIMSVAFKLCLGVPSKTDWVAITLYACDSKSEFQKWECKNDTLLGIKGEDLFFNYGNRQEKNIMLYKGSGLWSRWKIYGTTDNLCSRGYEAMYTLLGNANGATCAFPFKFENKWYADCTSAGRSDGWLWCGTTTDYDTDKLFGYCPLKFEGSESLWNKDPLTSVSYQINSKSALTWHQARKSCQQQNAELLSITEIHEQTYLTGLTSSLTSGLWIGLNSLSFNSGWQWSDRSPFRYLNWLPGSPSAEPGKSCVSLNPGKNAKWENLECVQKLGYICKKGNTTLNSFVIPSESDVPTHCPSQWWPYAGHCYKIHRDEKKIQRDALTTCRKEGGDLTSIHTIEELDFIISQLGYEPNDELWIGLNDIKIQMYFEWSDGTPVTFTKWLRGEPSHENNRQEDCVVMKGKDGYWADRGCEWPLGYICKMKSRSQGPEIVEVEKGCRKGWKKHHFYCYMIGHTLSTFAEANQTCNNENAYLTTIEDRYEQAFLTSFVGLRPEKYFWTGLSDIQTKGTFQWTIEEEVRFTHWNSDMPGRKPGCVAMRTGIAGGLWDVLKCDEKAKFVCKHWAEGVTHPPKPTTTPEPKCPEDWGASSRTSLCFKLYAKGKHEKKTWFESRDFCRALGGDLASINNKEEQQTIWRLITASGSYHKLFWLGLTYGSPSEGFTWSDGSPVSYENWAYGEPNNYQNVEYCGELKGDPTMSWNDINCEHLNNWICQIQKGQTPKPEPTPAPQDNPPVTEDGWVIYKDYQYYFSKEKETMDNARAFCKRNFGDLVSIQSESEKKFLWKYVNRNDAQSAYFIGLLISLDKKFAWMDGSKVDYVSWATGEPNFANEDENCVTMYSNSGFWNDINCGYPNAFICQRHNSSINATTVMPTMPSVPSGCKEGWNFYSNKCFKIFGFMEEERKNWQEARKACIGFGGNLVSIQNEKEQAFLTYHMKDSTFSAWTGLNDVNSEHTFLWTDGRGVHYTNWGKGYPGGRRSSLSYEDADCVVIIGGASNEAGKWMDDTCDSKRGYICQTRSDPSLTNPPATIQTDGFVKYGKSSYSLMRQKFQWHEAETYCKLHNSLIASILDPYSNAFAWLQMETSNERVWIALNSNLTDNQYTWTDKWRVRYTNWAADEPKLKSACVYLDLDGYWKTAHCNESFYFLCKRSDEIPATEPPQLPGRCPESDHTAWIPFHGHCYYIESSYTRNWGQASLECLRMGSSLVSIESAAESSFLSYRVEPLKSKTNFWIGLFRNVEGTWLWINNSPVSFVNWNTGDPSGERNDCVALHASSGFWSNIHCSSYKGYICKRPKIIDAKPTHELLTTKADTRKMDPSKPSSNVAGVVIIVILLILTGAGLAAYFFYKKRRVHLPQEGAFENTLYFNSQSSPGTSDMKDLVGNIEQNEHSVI


Columns and labels:
[1] = molecular target: T1, human macrophage mannose receptor; test: flow cytometry, hybridoma supernatant on monocyte-derived human dendritic cells
Experimental: The hybridomas secreting human IgG were tested for reactivity with various types of blood cells by flow cytometry. Dendritic cells were prepared from adherent mononuclear cells by culturing for 5-7 days in media supplemented with GM-CSF and IL-4. Granulocytes (PMN), monocytes and lymphocytes were obtained from heparanized whole blood. The cells were incubated with hybridoma supernatants from IgG-positive clones at 4° C. Binding was detected with a FITC-labeled goat anti-human IgG(Fc) probe. The cell associated fluorescence was determined by analysis using a FACScalibur instrument.

[2] = molecular target: T1, human macrophage mannose receptor; test: flow cytometry on monocyte-derived dendritic cells, anti-human IgG-F(ab')2-PE probe
Experimental: The reactivity of F(ab′)2 fragments of human monoclonal antibody B11 with dendritic cells from human tissues was evaluated by flow cytometry.
F(ab′)2 fragments were prepared by digestion of purified B11 mAb with pepsin under standard conditions. The F(ab′)2 fragments were purified by protein L chromatography. Dendritic cells, prepared fresh from human monocytes by culture in GM-CSF and IL-4, were incubated with whole antibody or F(ab′)2 antibody fragments for 1 hour at 4° C. The cells were washed before incubation with anti-human IgG-F(ab′)2-PE probe for 1 hour at 4° C. The cells were washed again prior to analysis using a FACScalibur instrument and Cellquest software.

binding result [1]	binding result [2]	Binder
binds		human monoclonal antibody B11 (antibody, human IgG1, V domains shown, Human IgG1 kappa from a HuMAb mouse hybridoma; also called B11 HuMab; mAb B11) VH: EVQLVQSGAEVKKPGESLRISCKGSGDSFTTYWIGWVRQMPGKGLEWMGIIYPGDSDTIYSPSFQGQVTISADKSISTAYLQWSSLKASDTAMYYCTRGDRGVDYWGQGTLVTVSS VL: DIQMTQSPSSLSASVGDRVTITCRASQGISRWLAWYQQKPEKAPKSLIYAASSLQSGVPSRFSGSGSGTDFTLTISGLQPEDFATYYCQQYNSYPRTFGQGTKVEIK
	binds	F(ab')2 fragments of human monoclonal antibody B11 (other, See the note of m1 on the VH/VL conflict; also called B11 F(ab')2) VH: EVQLVQSGAEVKKPGESLRISCKGSGDSFTTYWIGWVRQMPGKGLEWMGIIYPGDSDTIYSPSFQGQVTISADKSISTAYLQWSSLKASDTAMYYCTRGDRGVDYWGQGTLVTVSS VL: DIQMTQSPSSLSASVGDRVTITCRASQGISRWLAWYQQKPEKAPKSLIYAASSLQSGVPSRFSGSGSGTDFTLTISGLQPEDFATYYCQQYNSYPRTFGQGTKVEIK
